{"source": "patent US9889184B2", "about": "(priority 2008, dated 2018)", "key": {"[1]": {"test_system": "Fusarium oxysporum species", "details": "cited from earlier work"}, "Fusarium graminearum": {"test_system": "Fusarium graminearum", "format": "cell-based", "details": "for fungicidal activity in combination with NaD1: F. graminearum, conditions of the fungal bioassay; for fungicidal activity of the proteinase inhibitor on its own: not combined with NaD1, F. graminearum; for effect on hyphal growth: concentrations up to 18.5 uM in the absence of NaD1"}, "[2]": {"test_system": "Fusarium oxysporum f. sp. vasinfectum (Fov)", "experiment": "Growth inhibition of Fov by NaD1 (microtitre OD595)", "format": "cell-based", "experimental": "Lyophilized NaD1 (500 μg) was dissolved in 400 μL of stock buffer (200 mM Tris-HCl pH 8.0, 2 mM EDTA, 6 M guanidine-HCl, 0.02% [v/v] Tween-20). Reduction buffer (stock buffer with 15 mM dithiothreitol [DTT]) was added (44 μL) followed by a 4.5 h incubation at 40° C. The reaction mixture was cooled to RT before iodoacetic acid (0.5 M in 1 M NaOH, 55 μL) was added and the incubation continued in the dark for 30 min at RT. A Nanosep omega (Registered) spin column (3K molecular weight cut off, PALL Life Sciences) was used to remove salts, DTT and iodoacetic acid and the protein concentration was determined using the BCA protein assay (Pierce). The effect of reduced and alkylated NaD1 (NaD1R&A) on the growth of Fusarium oxysporum (Fov) was measured as described herein.\nAntifungal activity against Fusarium oxysporum f. sp. vasinfectum (Fov, Australian isolate VCG01111 isolated from cotton; from Wayne O'Neill, Farming Systems Institute, DPI, Queensland, Australia), Thielaviopsis basicola (gift from David Nehl, NSW DPI, Narrabri, Australia), Verticillium dahliae (from Helen McFadden, CSIRO Plant Industry, Black Mountain, Australia), Leptosphaeria maculans (from Barbara Howlett, University of Melbourne, Victoria, Australia) and Aspergillus nidulans (from Michael Hynes, University of Melbourne) was assessed essentially as described in Broekaert et al, 1990. Spores were isolated from sporulating cultures growing in either half-strength potato dextrose broth (PDB) (Fov and T. basicola), Czapeck-Dox Broth (V. dahliae) (Difco Laboratories) or 10% (v/v) clarified V8 medium (L. maculans and A. nidulans) by filtration through sterile muslin. Spore concentrations were determined using a hemocytometer and adjusted to 5×10^4 spores/mL in the appropriate growth medium. Spore suspensions (80 μL) were added to the wells of sterile 96-well flat-bottomed microtitre plates along with 20 μL of filter-sterilized (0.22 μm syringe filter; Millipore) NaD1, or water to give final protein concentrations of 0-10 μM. The plates were shaken briefly and placed in the dark at 25° C. without shaking until the optical density at 595 nm of the water control reached approximately 0.2 (24-72 h depending on growth rate). Hyphal growth was estimated by measuring the optical density at 595 nm using a microtitre plate reader (SpectraMax Pro M2; Molecular Devices). Each test was performed in quadruplicate."}, "Fov hyphae": {"test_system": "Fov hyphae", "experiment": "Uptake of NaD1 into hyphae (immunogold EM, bimane fluorescence, immunoblot)", "format": "cell-based, Fusarium oxysporum f. sp. vasinfectum", "details": "fluorescence microscopy, live hyphae", "experimental": "Fov hyphae were grown as described above prior to the addition of NaD1 (10 μM final concentration) to 1 mL of the culture. Samples (100 μL) were collected after 0, 5, 10, 30, 60, 90 and 120 min. Hyphae were collected by centrifugation (10 min, 10,000×g) and the supernatant was stored at −20° C. for analysis. Hyphae were washed (2×10 min) with KCl (0.6 M) to remove any ionically bound protein before they were resuspended in 50 mM CAPS buffer (pH 10.0) containing 10 mM DTT for 20 min. Hyphae were collected by centrifugation and the supernatant, containing cell wall proteins, was collected for analysis. The pellet (containing cells) was resuspended in water and the cells were lysed using glass beads (Sigma, 60 mg) and vortexing (3×10 min). Cellular debris was removed by centrifugation (16,000×g, 10 min) and the supernatant collected for analysis. All samples were then analyzed by SDS-PAGE and immunoblotting.\nFov hyphae were grown for 18 h in half-strength PDB (5 mL) with vigorous shaking at 25° C. from a starting spore suspension of 5×10^4/mL. Hyphae were then treated with 2 μM NaD1 or an equivalent volume of water for 2 h at RT with gentle agitation, and were washed twice in 0.6 M KCl and three times in PBS before fixation in 4% (w/v) paraformaldehyde in PBS for 1 h at 4° C. Hyphae were again washed three times in PBS before dehydration in a standard ethanol series (15 min each, 50%, 70% and 90% ethanol, 3×15 min 100% ethanol). Hyphae were then infiltrated with LR White resin (ProSciTech) for 1 h at RT, followed by 18 h at 4° C., 1 h at RT and 24 h at 60° C. Fresh LR White resin was used at each step. Ultrathin sections were cut and placed on Formvar coated gold grids.\nGrids were blocked with PBS containing 8% (w/v) BSA and 1% (v/v) Triton X-100 for 1 h and labeled with α-NaD1 antibodies (2 μg/mL in blocking buffer) for 1 h. Grids were washed in blocking buffer (3×10 min) and labeled with 15 nm gold particle labeled goat α-rabbit IgG antibodies (ProSciTech diluted 1 in 20 for 1 h. Grids were washed again in blocking solution (3×10 min) followed by water (15 min) before being air-dried. A JEOL JEM2010HC x e80 KV transmission electron microscope was used to examine labeled grids. Pictures were taken on Kodak EM film (ProSciTech) and developed in a dark room before scanning on a Hewlett Packard Scanjet 5P scanner.\nHyphae grown for 18 h as described were treated with NaD1-bimane (2 μM) for between 10 min and 6 h. Hyphae were then visualized by fluorescence microscopy using an MWU filter (excitation wavelength of 330-385 nm)."}, "cathepsin L": {"target": "T1, cathepsin L (Homo sapiens, UniProt P07711)", "T1 construct": "purchased Sigma", "T1 sequence (P07711 114-333, species assumed)": "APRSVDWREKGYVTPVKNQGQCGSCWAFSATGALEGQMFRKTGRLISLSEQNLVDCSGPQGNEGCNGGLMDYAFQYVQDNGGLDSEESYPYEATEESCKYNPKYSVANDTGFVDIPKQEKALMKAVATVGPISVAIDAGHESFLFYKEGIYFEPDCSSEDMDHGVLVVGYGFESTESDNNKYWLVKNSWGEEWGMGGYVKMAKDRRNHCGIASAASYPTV", "experiment": "Cysteine proteinase inhibitory activity, ZFR-MCA substrate", "format": "biochemical", "details": "bacterially expressed cystatin, FIG. 1E", "experimental": "(§1) The cysteine proteinase inhibitory activity of bacterially expressed NaCys1, NaCys3 and NaCys4 was determined using the enzymes papain and cathepsin L (Sigma). The assay mixtures (final volume 250 uL) contained papain or cathepsin L (50 nM final concentration), 100 uL of ZFR-MCA substrate (0.2 mM, Bachem, Melo et al., 2001), 100 uL of reaction buffer (0.2 M sodium acetate, 4 mM EDTA, 8 mM DTT, pH 5.5) and 50 uL of cystatin (for 0-20 uM final concentration). Released fluorescence was measured at 460 nm (excitation at 340 nm) after a 10 or 50 min incubation for papain and cathepsin L, respectively, at 37° C."}, "papain": {"target": "T2, papain (Carica papaya, UniProt P00784)", "T2 construct": "purchased Sigma", "T2 sequence (P00784 134-345)": "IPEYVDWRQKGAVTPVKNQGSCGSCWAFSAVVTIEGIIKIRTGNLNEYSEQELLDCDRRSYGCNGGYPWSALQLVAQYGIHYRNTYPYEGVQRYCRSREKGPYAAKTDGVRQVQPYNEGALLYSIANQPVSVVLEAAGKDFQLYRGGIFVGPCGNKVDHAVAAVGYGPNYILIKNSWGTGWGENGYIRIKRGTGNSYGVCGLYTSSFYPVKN", "experiment": "Cysteine proteinase inhibitory activity, ZFR-MCA substrate", "format": "biochemical", "details": "bacterially expressed cystatin, FIG. 1D", "experimental": "as §1"}}, "note": "No end group written: not given here.", "data": [{"molecule": "PhD1A: defensin isolated from petunia (Petunia hybrida) flowers (SEQ ID NO:24) (ATCKAECPTWDGICINKGPCVKCCKAQPEKFTDGHCSKILRRCLCTKPC; Petunia hybrida (PhD1A))", "values": [{"measurement": "activity in inhibiting Fusarium oxysporum species", "setting": "[1]", "value": "active in inhibiting"}]}, {"molecule": "CC(C)C[C@H](NC(=O)[C@H]1O[C@@H]1C(=O)O)C(=O)NCCCCN=C(N)N", "note": "[E64, reference compound]", "values": [{"measurement": "fungicidal activity in combination with NaD1", "setting": "Fusarium graminearum", "value": "no fungicidal activity"}, {"measurement": "fungicidal activity of the proteinase inhibitor on its own", "setting": "Fusarium graminearum", "value": "no fungicidal activity"}]}, {"molecule": "Tomdef2: defensin isolated from tomato flowers (SEQ ID NO:22) (QQICKAPSQTFPGLCFMDSSCRKYCIKEKFTGGHCSKLQRKCLCTKPC; Solanum lycopersicum var. cerasiforme (Tomdef2))", "values": [{"measurement": "activity in inhibiting Fusarium oxysporum species", "setting": "[1]", "value": "active in inhibiting"}]}, {"molecule": "NaD1-bimane: NaD1 labeled with the fluorophore bimane amine at carboxyl residues (RECKTESNTFPGICITKPPCRKACISEKFTDGHCSKILRRCLCTKPC; ends and bridges not checked; also: bimane amine fluorophore label at carboxyl residues (position not given here); UniProt Q8GTM0 26-72, looked up)", "values": [{"measurement": "antifungal activity of fluorophore-labeled NaD1", "setting": "[2]", "value": "retained full antifungal activity"}, {"measurement": "time at which internalization was observed", "setting": "Fov hyphae", "value": "20 to 30", "unit": "min"}]}, {"molecule": "NaD1 labeled with FITC: NaD1 labeled with FITC via reactive amine groups (RECKTESNTFPGICITKPPCRKACISEKFTDGHCSKILRRCLCTKPC; ends and bridges not checked; also: FITC label via reactive amine groups (position not given here); UniProt Q8GTM0 26-72, looked up)", "values": [{"measurement": "antifungal activity of fluorophore-labeled NaD1", "setting": "[2]", "value": "not biologically active"}]}, {"molecule": "PhD2: plant defensin from Petunia hybrida, accession Q8H6Q0 (protein, Petunia hybrida (PhD2Full length)) MARSICFFAVAILALMLFAAYETEAGTCKAECPTWEGICINKAPCVKCCKAQPEKFTDGHCSKILRRCLCTKPCATEEATATLANEVKTMAEALVEEDMME", "values": [{"measurement": "activity in inhibiting Fusarium oxysporum species", "setting": "[1]", "value": "active in inhibiting"}]}, {"molecule": "Soybean trypsin inhibitor Type II-S: serine proteinase inhibitor (21 kDa), Sigma T9128 (protein, UniProt P01070 25-205, looked up) Trypsin inhibitor A: DFVLDNEGNPLENGGTYYILSDITAFGGIRAAPTGNERCPLTVVQSRNELDKGIGTIISSPYRIRFIAEGHPLSLKFDSFAVIMLCVGIPTEWSVVEDLPEGPAVKIGENKDAMDGWFRLERVSDDEFNNYKLVFCPQQAEDDKCGDIGISIDHDDGTRRLVVSKNKPLVVQFQKLDKESL", "values": [{"measurement": "fungicidal activity in combination with NaD1", "setting": "Fusarium graminearum", "value": "no fungicidal activity"}, {"measurement": "fungicidal activity of the proteinase inhibitor on its own", "setting": "Fusarium graminearum", "value": "no fungicidal activity"}]}, {"molecule": "chicken egg white cystatin: cysteine proteinase inhibitor (12.7 kDa), Sigma C8917 (protein, UniProt P01038 24-139, looked up) Cystatin: SEDRSRLLGAPVPVDENDEGLQRALQFAMAEYNRASNDKYSSRVVRVISAKRQLVSGIKYILQVEIGRTTCPKSSGDLQSCEFHDEPEMAKYTTCTFVVYSIPWLNQIKLLESKCQ", "values": [{"measurement": "fungicidal activity in combination with NaD1", "setting": "Fusarium graminearum", "value": "no fungicidal activity"}, {"measurement": "fungicidal activity of the proteinase inhibitor on its own", "setting": "Fusarium graminearum", "value": "no fungicidal activity"}]}, {"molecule": "NaCys1: cystatin from Nicotiana alata, bacterially expressed (SEQ ID NO:2) (protein, Nicotiana alata (NaCys1)) MATLGGIREAGGSENSLEINDLARFAVDEHNKKQNALLEFGKVVNVKEQVVAGTMYYITLEATEGGKKKAYEAKVWVKPWQNFKQLEDFKLIGDAASA", "values": [{"measurement": "inhibition of Cathepsin L", "setting": "cathepsin L", "value": "better inhibitors of Cathepsin L than NaCys4"}, {"measurement": "inhibition of the cysteine proteinase papain", "setting": "papain", "value": "strong inhibitors"}, {"measurement": "effect on hyphal growth", "setting": "Fusarium graminearum", "value": "no effect on hyphal growth"}]}, {"molecule": "NaCys4: cystatin from Nicotiana alata (SEQ ID NO:8), tryptophan to arginine substitution at position 80 (protein, Nicotiana alata (NaCys4)) MANLGGIREAGGSENSLEINDLARFAVDEHNKKQNALLEFGKVVNVKEQVVAGTMYYITLEATEGGKKKAYEAKVWVKPRQNFKQLEDFKLIGDAASA", "values": [{"measurement": "inhibition of the cysteine proteinase papain", "setting": "papain", "value": "relatively poor inhibitor"}]}, {"molecule": "NaCys3: cystatin from Nicotiana alata, bacterially expressed (SEQ ID NO:6) (protein, Nicotiana alata (NaCys3)) MANLGGIREAGGSENSLEINDLARFAVDEHNKKQNALLEFGKVVNVKEQVVAGTMYYITLEATEGGKKKAYEAKVWVKPWQNFKQLEDFKLIGDAASA", "values": [{"measurement": "inhibition of Cathepsin L", "setting": "cathepsin L", "value": "better inhibitors of Cathepsin L than NaCys4"}, {"measurement": "inhibition of the cysteine proteinase papain", "setting": "papain", "value": "strong inhibitors"}, {"measurement": "effect on hyphal growth", "setting": "Fusarium graminearum", "value": "no effect on hyphal growth"}]}]}
